{"source": "paper PMC3093132", "binders": {"B1": {"name": "5'-recessed-end substrate (gap mimic) (dsDNA)", "DNA 1": "TCGACTAGCG", "DNA 2": "CGCTAGTCGACAC", "modifications": "5' phosphate on strand 1"}}, "biological_target": "hExo1 catalytic domain D173A (Homo sapiens, UniProt Q9UQ84 1-352, D173A)", "sequence (Q9UQ84 1-352 D173A)": "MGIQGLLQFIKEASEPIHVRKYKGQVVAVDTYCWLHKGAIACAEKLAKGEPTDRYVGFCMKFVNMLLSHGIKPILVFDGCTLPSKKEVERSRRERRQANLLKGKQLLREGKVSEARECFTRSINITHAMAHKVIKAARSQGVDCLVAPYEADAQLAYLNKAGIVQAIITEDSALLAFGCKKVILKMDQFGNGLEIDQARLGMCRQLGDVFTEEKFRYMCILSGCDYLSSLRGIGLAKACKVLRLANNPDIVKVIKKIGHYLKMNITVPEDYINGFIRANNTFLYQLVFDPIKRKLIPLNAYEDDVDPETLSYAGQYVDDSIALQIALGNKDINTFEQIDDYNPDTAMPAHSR", "assay": "crystal structure", "data": [{"binder": "B1", "values": [{"measurement": "binding result", "result": "binds"}]}]}
